These results are taken from patent US20200332017A1 (SALUBRIS CHENGDU BIOTECH, published 2020).

Assay [1] has as its target T1, human CD40-Fc protein (amino acid residue 21-193 of SEQ ID NO: 67 linked to N-terminus of amino acid residue … (human, biotin-labeled in the capture ELISA and in the benchmark blocking ELISA; unlabeled when coated in the ligand blocking ELISA).
T1 construct: also called biotin-labeled human CD40-Fc; human CD40-Fc-biotin
The assay is described as follows: competitive ELISA; coated human CD40-Fc, competitor biotin human CD40L-his. The procedure:
Briefly, human CD40-Fc proteins (amino acid residue 21-193 of SEQ ID NO: 67 linked to N-terminus of amino acid residue 99-330 of SEQ ID NO.: 24) were coated on 96-well micro plates at 2 μg/mL in coating buffer (PBS) and incubated overnight at 4° C. The next day, plates were washed with wash buffer (PBS+0.05% Tween-20, PBST), and blocked with 5% w/v non-fatty milk in PBST for 2 hours at 37° C. Plates were then washed again using wash buffer.
(§1) Serially diluted the mouse anti-CD40 antibodies of the present invention or the controls (starting at 200 nM with a four-fold serial dilution) in 2.5% w/v non-fatty milk in PBST were prepared to the plates and incubated with the human CD40-Fc proteins at room temperature for 40 minutes. […] Plates were washed again. 100 μl/well of streptavidin conjugated HRP was added and incubated for 40 minutes at 37° C. Plates were washed again using wash buffer. Finally, TMB was added and the reaction was stopped using 1M H₂SO₄, and the absorbance was read at 450 nm. Data were analyzed using Graphpad Prism software and IC₅₀ values were reported.

Assay [2] deals with T2, full length human CD40 (uniprot # P25942-1) on the membrane of 293T-CD40 cells (human, UniProt P25942 21-277).
T2 construct: also called cell surface CD40
The assay is described as follows: flow cytometry on 293T-CD40 cells, PE-labeled secondary antibody, MFI. The procedure: (§2) 2×10⁵ cells per well in 96 well-plates were incubated with the mouse anti-CD40 antibodies or the controls of various concentrations in FACS buffer for 40 minutes on ice. […] Following an incubation of 40 minutes at 4° C. in dark, cells were washed three times and resuspended in FACS buffer. Fluorescence was measured using a Becton Dickinson FACS Canto II-HTS equipment and plotted against antibody concentration.

The target of assay [3] is T1, human CD40-Fc protein (amino acid …). The experiment in a line: competitive ELISA; biotin human CD40-Fc in solution, competitor coated BM2. The procedure: (§3) The ability of the mouse anti-CD40 antibodies of the present invention to block the binding of the Benchmark to human CD40 was measured using a competitive ELISA assay. […] The next day, plates were washed with wash buffer, and blocked with 5% w/v non-fatty milk in PBST for 2 hours at 37° C. Plates were then washed again using wash buffer. […] After incubation at 37° C. for 40 minutes, plates were washed 4 times using wash buffer. Then streptavidin conjugated HRP was added and incubated for 40 minutes at 37° C. to detect biotin-labeled human CD40-Fc bound to plates. Plates were washed again using wash buffer. Finally, TMB was added and the reaction was stopped using 1M H₂SO₄, and the absorbance was read at 450 nm. Data were analyzed using Graphpad Prism software and IC₅₀ values were reported.

In assay [4] the target is T2, full length human CD40 (uniprot # …). The experiment in a line: flow cytometry on 293T-CD40 cells. On the procedure:
as §2

Assay [5] has as its target T1, human CD40-Fc protein (amino acid …). The assay is described as follows: capture ELISA; antibody captured, biotin-labeled human CD40-Fc in solution. On the procedure: (§4) Plates were washed 4 times with wash buffer (PBS+0.05% Tween-20, PBST) and then blocked with 200 μl/well blocking buffer (5% w/v non-fatty milk in PBST) for 2 hours at 37° C. […] After a final wash, plates were incubated with 100 μl/well ELISA substrate TMB (Innoreagents, Cat # TMB-S-002). The reaction was stopped in 15 minutes at 25° C. with 50 μl/well 1M H₂SO₄, and the absorbance was read at 450 nm and plotted against antibody concentration. Data were analyzed using Graphpad Prism software and EC₅₀ values were reported.

Assay [6] addresses T2, full length human CD40 (uniprot # …). The assay is described as follows: cell-based or functional assay.
Assay [7] concerns the target T1, human CD40-Fc protein (amino acid …). The experiment in a line: ligand blocking ELISA: human CD40-Fc coated, antibody titrated, then biotin-labeled human CD40L-his (blocked ligand), streptavidin-HRP, OD(450-630). The procedure:
as §1

Assay [8] has as its target T2, full length human CD40 (uniprot # …). The experiment in a line: flow cytometry on 293T-CD40 cells. The procedure:
as §2
This is another data set of the same source.

Assay [9] addresses T3, Human CD40-his protein (Acro biosystems, Cat # CD0-H5228) (human, UniProt P25942 21-193).
T3 construct: Bought reagent; not shown: his tag
The assay is described as follows: SPR, Biacore; human CD40-his. The text has this: (§5) Briefly, goat anti-mouse IgG (GE healthcare, Cat # BR100838, Mouse Antibody Capture Kit) was covalently linked to a CM5 or a Protein G chip (carboxy methyl dextran coated chip) via primary amines, using a standard amine coupling kit provided by Biacore (GE healthcare, Pittsburgh, Pa., USA). Un-reacted moieties on the biosensor surface were blocked with ethanolamine. […] Then, human CD40-his (Acro biosystems, Cat # CD0-H5228) or cynomolgus monkey CD40-his protein (Acro biosystems, Cat # CD0-052H6) in HBS EP buffer (provided by Biacore) was flowed onto the chip at a flow rate of 30 μL/min. The antigen-antibody association kinetics was followed for 2 minutes and the dissociation kinetics was followed for 10 minutes. The association and dissociation curves were fit to a 1:1 Langmuir binding model using BIA evaluation software.

Assay [10] addresses T1, human CD40-Fc protein (amino acid …). The assay is described as follows: competitive ELISA; coated human CD40-Fc, competitor biotin human CD40L-his. On the procedure: as §1
This is another data set of the same source.

The target of assay [11] is T3, Human CD40-his protein (Acro …). The assay is described as follows: SPR, Biacore; antibody captured, human CD40-his flowed.
Description: as §5

The target in assay [12] is T1, human CD40-Fc protein (amino acid …). The assay is described as follows: capture ELISA; antibody captured, biotin-labeled human CD40-Fc in solution. On the procedure: as §4
The source holds these as a separate data set.

Assay [13] has the same target. The assay is described as follows: benchmark blocking ELISA: BM2 (Selicrelumab) coated as competitor, antibody titrated in biotin-labeled human CD40-Fc solution, streptavidin-HRP, OD(450-630). On the procedure: as §3
Assay [14] concerns the target T4, cynomolgus monkey CD40-his protein (Acro biosystems, Cat # CD0-052H6) (cynomolgus monkey, UniProt G7PG38 21-193).
T4 construct: Bought reagent; also called Cynomolgus CD40-his
The assay is described as follows: SPR, Biacore; cynomolgus CD40-his.
Description: as §5

Assay [15] addresses T1, human CD40-Fc protein (amino acid …). The assay is described as follows: capture ELISA (antibody captured on coated goat anti-human IgG F(ab')2, biotin-labeled human CD40-Fc in solution, streptavidin-HRP, OD(450-630)).
Assay [16] concerns the target T2, full length human CD40 (uniprot # …). The experiment in a line: flow cytometry on 293T-CD40 cells, PE goat anti-human IgG Fc-gamma secondary antibody, MFI. The procedure: Following an incubation of 40 minutes at 4° C. in dark, cells were washed three times and resuspended in FACS buffer. Fluorescence was measured using a Becton Dickinson FACS Canto II-HTS equipment and plotted against antibody concentration.

Assay [17] has the same target. The assay is described as follows: cell-based or functional assay. The source holds these as a separate data set.

Read-outs that look alike come from different tables or passages of the source.

B1: mouse anti-CD40 monoclonal antibody 1B2 (antibody, V domains shown)
VH: EVQLQQSGPELVKPGASVKMSCKASGYTFTDYVMHWVKQKPGQGLECIGYINPYNDGTKYNEKFKGKATLTSDKSSSAAYLELSSLTSEDSAVYYCARGFLRESWFGYWGQGTLVTVSA
VL: DVLMTQTPLSLPVSLGDQASISCRSSQNIVHSNGNTYLDWYLQKPGQSPKLLIYKVSNRFSGVPDRFSGSGSGTDFTLKINRVEAEDLGVYYCFQGSHVPPTFGAGTKLELK
notes: Purified from hybridoma supernatant; also called Mouse 1B2
Turning to B1, the IC50 in assay [1] amounted to 315 nM; in assay [3], 4.76 nM. Further, the “EC50 (read off the curve)” value in [2] was about 3 nM. Also, the EC50 in assay [4] stood at 2.54 nM; in [5] it was 47.1 nM. Further, in assay [6], the “Cell-based Reporter assay (EC50, nM)” value stood at 6.36 nM.

B2: humanized antibody huC1C1-V7 (antibody, human IgG1, kappa, V domains shown)
VH: EVQLVESGGGVVQPGRSLRLSCAASGFTFSNYGMSWVRQAPGKGLEWVASISSGGDDTYYPDNVKGRFTISRDNSKNTLYLQMNSLRAEDTAVYYCTRAGGKAMDYWGQGTLVTVSS
VL: EIVLTQSPATLSLSPGERATLSCRASQSIRDNLHWYQQKPGQAPRLLIYYASQSISGIPARFSGSGSGTDFTLTISSLEPEDFAVYYCQQFNSWPLTFGQGTKVEIKR
notes: Human IgG1/kappa; also called humanized C1C1-V7
With B2, the figures for the “IC50 (read off the curve)” value in assay [7] and in assay [13] were about 0.5 µg/mL and about 0.02 µg/mL, respectively. Besides, the EC50 in [8] was determined as 1.85 nM; in assay [12] it was 0.248 nM. Also, the Kd in assay [9] was found to be 11.3 nM; in assay [11] it was 11.9 nM; in assay [14], 4.04 nM. Further, the IC50 was determined as 3 nM in assay [10] and 0.111 nM in [3]. Also, the koff in assay [11] amounted to 0.00968 s⁻¹. Also, the on-rate constant (kon) in [11] is 814000 M⁻¹ s⁻¹. For the same molecule, the “EC50 (read off the curve)” value is about 0.04 µg/mL in assay [15] and about 0.3 µg/mL in assay [16]. The “cell based functional assay (EC50, nM)” value in assay [17] came to 4.25 nM.
